Literature values in US7759315B2, “Treatment of inflammatory conditions of the intestine” (CSL Behring AG, priority 2005, dated 2010).
Non-standard residues stand in square brackets, D forms with d. No end group written: not given here. Orn = NCCC[C@H](N)C(=O)O; Aib = CC(C)(N)C(=O)O

Biological target: T1, LCAT (Homo sapiens, UniProt P04180)
T1 sequence (P04180 25-440): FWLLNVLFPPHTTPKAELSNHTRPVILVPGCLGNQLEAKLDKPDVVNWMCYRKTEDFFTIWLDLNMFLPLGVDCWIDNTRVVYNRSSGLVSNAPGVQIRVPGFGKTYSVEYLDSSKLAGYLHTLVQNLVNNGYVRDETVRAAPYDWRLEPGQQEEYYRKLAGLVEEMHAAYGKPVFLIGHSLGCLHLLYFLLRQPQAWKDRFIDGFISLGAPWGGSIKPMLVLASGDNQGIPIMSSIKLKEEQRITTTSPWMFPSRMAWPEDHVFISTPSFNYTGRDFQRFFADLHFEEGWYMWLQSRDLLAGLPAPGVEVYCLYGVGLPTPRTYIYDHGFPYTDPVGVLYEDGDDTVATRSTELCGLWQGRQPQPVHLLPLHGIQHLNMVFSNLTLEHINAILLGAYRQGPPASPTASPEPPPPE

Substance | ACTIVITY (%) LCAT [%]
PVLELFDNLLDKLLDALQKKLR [Peptide 180] | 8
PVLDEFRELLKEXLEALKQKLK (PVLDEFRELLKE[Aib]LEALKQKLK; not fully specified (C-terminus)) [Peptide 68] | 14
PVLDLFRELLNELLEGLKQKLK [Peptide 22] | 54
PVLDLFRELLNELLQKLK* (not fully specified (N-terminus, C-terminus); printed as PVLDLFRELLNELLQKLK*) [Peptide 218] | 29
PVLDEFRKKLNEXLEALKQKLK (PVLDEFRKKLNE[Aib]LEALKQKLK; not fully specified (C-terminus)) [Peptide 69] | 13
PVLDEFREKLNEELEALWQKLK [Peptide 121] | 0
PVLDLFRNLLEELLKALEQKLK [Peptide 57] | 18
PVLELFLNLWERLLDALQKKLK [Peptide 155] | 38
GVLDLFRELLNELLEALKQKLK [Peptide 18] | 58
PVLDEFREKLNEELEXLKQKLK (PVLDEFREKLNEELE[Aib]LKQKLK; not fully specified (C-terminus)) [Peptide 120] | 0
PVLELFLNLLERLLDALQKKLK [Peptide 156] | 35
PVLELFERLLDELLNALQKKLK [Peptide 86] | 7
PVLDLFRELLNELLEALQKKLK [Peptide 24] | 53
PVLELFEQLLEKLLDALQKKLK [Peptide 168] | 17
PALELFKDLLEEFRQRLK* (not fully specified (N-terminus, C-terminus); printed as PALELFKDLLEEFRQRLK*) [Peptide 213] | 42
PVLDEFREKLNELLEALKQKLK [Peptide 84] | 7
PVLDLFREGLNELLEALKQKLK [Peptide 20] | 57
XVLDLFRELLNELLEALKQKLK ([Aib]VLDLFRELLNELLEALKQKLK; not fully specified (C-terminus)) [Peptide 32] | 33
PVLDEFREKLNEXLEALKQKL~ (PVLDEFREKLNE[Aib]LEALKQKL; not fully specified (C-terminus); printed as PVLDEFREKLNEXLEALKQKL~) [Peptide 58] | 18
pVLDLFRELLEELKQKLK* ([dP]VLDLFRELLEELKQKLK; not fully specified (N-terminus, C-terminus); printed as pVLDLFRELLEELKQKLK*; also: * mark of unstated meaning) [Peptide 214] | 39
PVLDLFERLLNELLEALQKKLK [Peptide 80] | 9
~~LDEFREKLNEXLEALKQKLK (LDEFREKLNE[Aib]LEALKQKLK; not fully specified (C-terminus); printed as ~~LDEFREKLNEXLEALKQKLK) [Peptide 82] | 8
PVLDEFREKLNELXEALKQKLK (PVLDEFREKLNEL[Aib]EALKQKLK) [Peptide 71] | 11
PVLDLFREGWEELKQKLK [Peptide 224] | 8

Substance | ACTIVITY (%) LCAT [%]
PVLDEFREKLNEXMEALKQKLK (PVLDEFREKLNE[Aib]MEALKQKLK; not fully specified (C-terminus)) [Peptide 114] | 0
PVLDLFRELLNLXLEALKEKLK (PVLDLFRELLNL[Aib]LEALKEKLK; not fully specified (C-terminus)) [Peptide 102] | 2
PVLDLFREKLNELLEALKQKLK [Peptide 33] | 33
PVLELFDNLLEKLLEALQKKLR [Peptide 178] | 9
PVLDLFREWLEELKQKLK* (not fully specified (N-terminus, C-terminus); printed as PVLDLFREWLEELKQKLK*) [Peptide 205] | 60
PVLDLFRELLNEELEALKQKLK [Peptide 98] | 2
PVLDEFRELLNELLEALKQKLK [Peptide 79] | 9
pVLDLFRELLNELLEALKQKLK [Peptide 21] | 57
PVLDEFREKLNKXLEALKQKLK (PVLDEFREKLNK[Aib]LEALKQKLK; not fully specified (C-terminus)) [Peptide 77] | 9
PALELFKDLLEELRQRLK* (not fully specified (N-terminus, C-terminus); printed as PALELFKDLLEELRQRLK*) [Peptide 208] | 48
PVLDLFREGLEELKQKLK* (not fully specified (N-terminus, C-terminus); printed as PVLDLFREGLEELKQKLK*) [Peptide 228] | 0
PVLDEFREKLWEXWEALKQKLK (PVLDEFREKLWE[Aib]WEALKQKLK; not fully specified (C-terminus)) [Peptide 111] | 0
GVLDLFRELLNEGLEALKQKLK [Peptide 13] | 67
PVLDKFREKLNEXLEALKQKLK (PVLDKFREKLNE[Aib]LEALKQKLK; not fully specified (C-terminus)) [Peptide 74] | 10
DWFKAFYDKFFEKFKEFF [Peptide 247] | 3
PLLELFENLLERLLDALQKKLK [Peptide 150] | 57
PVLDKFRELLNEXLEALKQKLK (PVLDKFRELLNE[Aib]LEALKQKLK) [Peptide 88] | 7
PVLDLFDNLLDRLLDLLNKKLK [Peptide 173] | 15
PVLDLFRELGNELLEALKQKLK [Peptide 9] | 83
PVLDLFKELLQELLEALKQKLK [Peptide 11] | 72
PVLDEFREKLNEXLWALKQKLK (PVLDEFREKLNE[Aib]LWALKQKLK; not fully specified (C-terminus)) [Peptide 89] | 6
AVLDLFRELLNELLEALKQKLK [Peptide 29] | 39
PVLDEFRELYNEXLEALKQKLK (PVLDEFRELYNE[Aib]LEALKQKLK; not fully specified (C-terminus)) [Peptide 92] | 5
GVLELFLNLLERLLDALQKKLK [Peptide 177] | 10

Substance | ACTIVITY (%) LCAT [%]
PVLDEFREKLNEXLEALEQKLK (PVLDEFREKLNE[Aib]LEALEQKLK) [Peptide 118] | 0
pVLDLFRELLNEGLEALKQKLK ([dP]VLDLFRELLNEGLEALKQKLK; not fully specified (C-terminus); printed as pVLDLFRELLNEGLEALKQKLK) [Peptide 19] | 58
PVLDEFRELLNEELEALKQKAK (PVLDEFRELLNEELEALKQKLK) [Peptide 103] | 1
PVLELFENLLEOLLDALQOOLO (PVLELFENLLE[Orn]LLDALQ[Orn][Orn]L[Orn]) [Peptide 170] | 17
PVLDEFREKLNEXXEALKQKLK (PVLDEFREKLNE[Aib][Aib]EALKQKLK; not fully specified (C-terminus)) [Peptide 110] | 0
PVLDLFRELLNELWQKLK [Peptide 219] | 24
PVLDEFREKLNEXSEALKQKLK (PVLDEFREKLNE[Aib]SEALKQKLK; not fully specified (C-terminus)) [Peptide 112] | 0
PVLELWENLLERLLDALQKKLK [Peptide 176] | 11
PVLDEFREKLNEELEAXKQKLK (PVLDEFREKLNEELEA[Aib]KQKLK; not fully specified (C-terminus)) [Peptide 119] | 0
PVLELFKELLQELLEALKQKLK [Peptide 17] | 59
~VLDEFREKLNEXLEALKQKLK (VLDEFREKLNE[Aib]LEALKQKLK; not fully specified (C-terminus); printed as ~VLDEFREKLNEXLEALKQKLK) [Peptide 65] | 15
VVLDLFRELLNELLEALKQKLK [Peptide 53] | 19
GIKKFLGSIWKFIKAFVG [Peptide 242, 18L peptide (Degreat et al., 1990), reference compound] | 7
PVLELFLNLLERLLDAWQKKLK [Peptide 184] | 4
PVLDFFRELLEELKQKLK* (not fully specified (N-terminus, C-terminus); printed as PVLDFFRELLEELKQKLK*) [Peptide 204] | 63
PELDEFREKLNEXLEALKQKLK (PELDEFREKLNE[Aib]LEALKQKLK; not fully specified (C-terminus)) [Peptide 117] | 0
PVLDEFREKLNEXLKALKQKLK (PVLDEFREKLNE[Aib]LKALKQKLK; not fully specified (C-terminus)) [Peptide 93] | 5
PVFELFENLLERLLDALQKKLK [Peptide 152] | 50
PWLDEFREKLNEXLEALKQKLK (PWLDEFREKLNE[Aib]LEALKQKLK; not fully specified (C-terminus)) [Peptide 64] | 15
PVLDEFRWKLNEXLEALKQKLK (PVLDEFRWKLNE[Aib]LEALKQKLK; not fully specified (C-terminus)) [Peptide 61] | 16
PLLELFKELLQELLEALKQKLK [Peptide 23] | 54
PVLDAFRELGEALLQLKK [Peptide 226] | 1
PVLDLFOELLEELOQOLK* (PVLDLF[Orn]ELLEEL[Orn]Q[Orn]LK; not fully specified (N-terminus, C-terminus); printed as PVLDLFOELLEELOQOLK*) [Peptide 212] | 43
